Results reported in article PMC2806001, “Identification of Peroxiredoxin 1 as a novel interaction partner for the lifespan regulator protein p66Shc” (Aging, 2009).
“And” between values parts separate entries of the source, which are not always exact repeats. Equal entries are not always repeated.

B1: p66CH2CB WT (N-terminal domains CH2 and CB of p66Shc, residues 1-150) (domain or fragment, UniProt P29353-1 1-150, looked up)
chain: MDLLPPKPKYNPLRNESLSSLEEGASGSTPPEELPSPSASSLGPILPPLPGDDSPTTLCSFFPRMSNLRLANPAGGRPGSKGEPGRAADDGEGIVGAAMPDSGPLPLLQDMNKLSGGGGRRTRVEGGQLGGEEWTRHGSFVNKPTRGWLH
notes: p66Shc (largest polypeptide of the shcA locus), residues 1-150 (CH2 and CB domains); Exists as a reduced dimer and an oxidised, disulfide-bridged tetramer; used as a mixture or as isolated states; also called p66Shc N-terminal domain; source: E. coli BL21(DE3)Rosetta2, purified (Talon resin, size exclusion on superose 12)

Assays:
[1] = biological target: B1; assay: native gel or EMSA; BN-PAGE of purified recombinant proteins incubated for 1 hour at room temperature (20 μg p66CH2CB with 40 μg Prx1 WT or 20 μg Prx1-Cys83Ser); bands cut out and separated in a second, denaturing SDS-PAGE dimension; details: both partners purified
[2] = biological target: the molecule itself; assay: native gel or EMSA; BN-PAGE; 15 μg p66CH2CB with 30 μg decameric Prx1-Cys52Ser and 5/10/20 μg Trx1 in the presence of 3 mM EDTA
[3] = biological target: the molecule itself; assay: native gel or EMSA; BN-PAGE of purified recombinant proteins incubated for 1 hour at room temperature (20 μg p66CH2CB with 40 μg Prx1 WT or 20 μg Prx1-Cys83Ser); bands cut out and separated in a second, denaturing SDS-PAGE dimension
[4] = biological target: the molecule itself; assay: SEC; oligomeric states separated on a superose 12 column in 20 mM Tris pH 7.8 + 150 mM NaCl

Row | Binder | stoichiometry N [3] | stoichiometry N [4] | further results
1 | Peroxiredoxin 1 (Prx1) WT, recombinant (enzyme, mouse, UniProt P35700 1-199, looked up, Peroxiredoxin 1, gene PCR-amplified from mouse colon cDNA, cloned into pET151/D-Topo; Mainly a decamer (five dimers) on the BN-gel; also called decameric Prx1; source: E. coli BL21(DE3)Rosetta2, purified (Talon resin, size exclusion on superose 12); copies: 10) MSSGNAKIGYPAPNFKATAVMPDGQFKDISLSEYKGKYVVFFFYPLDFTFVCPTEIIAFSDRADEFKKLNCQVIGASVDSHFCHLAWINTPKKQGGLGPMNIPLISDPKRTIAQDYGVLKADEGISFRGLFIIDDKGILRQITINDLPVGRSVDEIIRLVQAFQFTDKHGEVCPAGWKPGSDTIKPDVNKSKEYFSKQK | – | – | stoichiometry N [1]: 1
2 | Prx1-Cys52Ser (enzyme, mouse, UniProt P35700 1-199, looked up, Peroxiredoxin 1 from mouse colon cDNA in pET151/D-Topo, Cys52Ser (peroxidasic cysteine); also called Prx1-Cys52Ser active site mutant; source: E. coli BL21(DE3)Rosetta2, purified (Talon resin, size exclusion on superose 12); copies: 10) MSSGNAKIGYPAPNFKATAVMPDGQFKDISLSEYKGKYVVFFFYPLDFTFVSPTEIIAFSDRADEFKKLNCQVIGASVDSHFCHLAWINTPKKQGGLGPMNIPLISDPKRTIAQDYGVLKADEGISFRGLFIIDDKGILRQITINDLPVGRSVDEIIRLVQAFQFTDKHGEVCPAGWKPGSDTIKPDVNKSKEYFSKQK | – | – | stoichiometry N [2]: 10
3 | Prx1-Cys83Ser (enzyme, mouse, UniProt P35700 1-199, looked up, Peroxiredoxin 1 from mouse colon cDNA in pET151/D-Topo, Cys83Ser; Constitutively dimeric; also called Cys83Ser regulatory mutant; dimeric Prx1-Cys83Ser mutant; source: E. coli BL21(DE3)Rosetta2, purified (Talon resin, size exclusion on superose 12)) MSSGNAKIGYPAPNFKATAVMPDGQFKDISLSEYKGKYVVFFFYPLDFTFVCPTEIIAFSDRADEFKKLNCQVIGASVDSHFSHLAWINTPKKQGGLGPMNIPLISDPKRTIAQDYGVLKADEGISFRGLFIIDDKGILRQITINDLPVGRSVDEIIRLVQAFQFTDKHGEVCPAGWKPGSDTIKPDVNKSKEYFSKQK | 2 | – | –
4 | B1 | 4 | 2 | –
5 | p66CH2CB-Ser36Asp (domain or fragment, UniProt P29353 1-150, looked up, p66Shc, residues 1-150 (CH2 and CB domains), Ser36Asp phosphomimetic; Dimer and tetramer forms were both used; also called Ser36Asp mutant; p66CH2CB-Ser36Asp mutant simulating Ser36 phosphorylation; source: E. coli BL21(DE3)Rosetta2, purified (Talon resin, size exclusion on superose 12)) MDLLPPKPKYNPLRNESLSSLEEGASGSTPPEELPDPSASSLGPILPPLPGDDSPTTLCSFFPRMSNLRLANPAGGRPGSKGEPGRAADDGEGIVGAAMPDSGPLPLLQDMNKLSGGGGRRTRVEGGQLGGEEWTRHGSFVNKPTRGWLH | – | 2 and 4 | –
